Data from paper PMC8376106, “NAD^+ pool depletion as a signal for the Rex regulon involved in Streptococcus agalactiae virulence” (PLoS Pathogens, 2021).
Like-named read-outs stand apart in the source and are kept apart here.

Experiments:
GBS Rex (Gbs1167) = target: T1, GBS Rex (Gbs1167) (Streptococcus agalactiae, UniProt Q8E565); assay: isothermal titration calorimetry, one-site fit; format: binding
T1 construct: native Rex from pET101-Strex in E. coli TUNER (DE3), no tag used in purification; apo form eluted from 5' AMP-Sepharose; homodimer
Text: isothermal titration calorimetry, one-site fit on GBS Rex (Gbs1167)

Rex (Gbs1167) [1] = target: T2, Rex (Gbs1167) (Streptococcus agalactiae NEM316, UniProt Q8E565 1-212); assay: ITC; details: NAD+; EMSA: 20 mM Tris pH 8.0, 1 mM EDTA, 75 mM KCl, 1 mM DTT, 10 ug/ml BSA, 10% glycerol, 30 C, 20 min, 30 nM DNA (promoter fragments). ITC: 100 mM potassium …
T2 sequence: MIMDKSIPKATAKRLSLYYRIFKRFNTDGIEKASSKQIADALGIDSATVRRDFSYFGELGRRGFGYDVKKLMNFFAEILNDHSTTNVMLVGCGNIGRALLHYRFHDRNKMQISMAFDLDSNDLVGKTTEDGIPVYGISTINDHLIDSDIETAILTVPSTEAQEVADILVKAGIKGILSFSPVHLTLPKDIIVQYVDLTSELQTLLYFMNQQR

Rex (Gbs1167) [2] = target: T2, Rex (Gbs1167); assay: ITC and EMSA; details: apo Rex in ITC; n = 2.2 +/- 0.2 (one dimer per DNA); EMSA: 20 mM Tris pH 8.0, 1 mM EDTA, 75 mM KCl, 1 mM DTT, 10 ug/ml BSA, 10% glycerol, 30 C, 20 min, 30 nM DNA (promoter fragments). ITC: 100 mM potassium …
Rex (Gbs1167) [3] = target: T2, Rex (Gbs1167); assay: EMSA; EMSA: 20 mM Tris pH 8.0, 1 mM EDTA, 75 mM KCl, 1 mM DTT, 10 ug/ml BSA, 10% glycerol, 30 C, 20 min, 30 nM DNA (promoter fragments). ITC: 100 mM potassium phosphate pH 7.5, 25 C. Crystals: 25% PEG 1500, MIB buffer pH 5.0, 20 C.; details: protein: recombinant; tags: none (native, pET101-Strex); chain copies: 2; label: 32P; (only forward strand given)
Rex (Gbs1167) [4] = target: T2, Rex (Gbs1167); assay: EMSA; same as native ldh operator; EMSA: 20 mM Tris pH 8.0, 1 mM EDTA, 75 mM KCl, 1 mM DTT, 10 ug/ml BSA, 10% glycerol, 30 C, 20 min, 30 nM DNA (promoter fragments). ITC: 100 mM potassium phosphate pH 7.5, 25 C. Crystals: 25% PEG 1500, MIB buffer pH 5.0, 20 C.; details: protein: recombinant; tags: none (native, pET101-Strex); chain copies: 2; label: 32P; (only forward strand given)
crystal structure = target: the molecule itself; assay: crystal structure
Rex (Gbs1167) [5] = target: T2, Rex (Gbs1167); assay: X-ray crystallography (2.4 A); NAD+; Mg2+ ion located; EMSA: 20 mM Tris pH 8.0, 1 mM EDTA, 75 mM KCl, 1 mM DTT, 10 ug/ml BSA, 10% glycerol, 30 C, 20 min, 30 nM DNA (promoter fragments). ITC: 100 mM potassium phosphate pH 7.5, 25 C. Crystals: 25% PEG 1500, MIB buffer pH 5.0, 20 C.; details: protein: recombinant; tags: none (native, pET101-Strex); chain copies: 2; blunt; self-complementary, 2 strand copies

Work on NC(=O)C1=CN([C@@H]2O[C@H](COP(=O)(O)OP(=O)(O)OC[C@H]3O[C@@H](n4cnc5c(N)ncnc54)[C@H](OP(=O)(O)O)[C@@H]3O)[C@@H](O)[C@H]2O)C=CC1 [NADPH] yielded a Kd (GBS Rex (Gbs1167)) of 143 µM.

Work on “ROP-DNA used in ITC (sequence not specified)” yielded a binding signal (fold affinity vs apo Rex) (Rex (Gbs1167) [1]) of 1.35 and a Kd (Rex (Gbs1167) [2]) of 0.03 µM.

With NC(=O)C1=CN([C@@H]2O[C@H](COP(=O)(O)OP(=O)(O)OC[C@H]3O[C@@H](n4cnc5c(N)ncnc54)[C@H](O)[C@@H]3O)[C@@H](O)[C@H]2O)C=CC1 [NADH] the Kd (GBS Rex (Gbs1167)) was 0.357 µM.

Nc1ncnc2c1ncn2[C@@H]1O[C@H](COP(=O)(O)OP(=O)(O)OP(=O)(O)O)[C@@H](O)[C@H]1O [ATP] gave a Kd (GBS Rex (Gbs1167); read-out: Ka (M^-1)^a x 10^-6 (converted)) of 250 µM.

Molecule NC(=O)c1ccc[n+]([C@@H]2O[C@H](COP(=O)(O)OP(=O)(O)OC[C@H]3O[C@@H](n4cnc5c(N)ncnc54)[C@H](O)[C@@H]3O)[C@@H](O)[C@H]2O)c1 [NAD^+] has a Kd (GBS Rex (Gbs1167)) of 76.9 µM.

B1: ldh_m2 (C19T, C21T) (dsDNA)
DNA 1: TTTGTTTGCAAATTTTTTTATATTTTAT
DNA 2: ATAAAATATAAAAAAATTTGCAAACAAA
B1: no binding (Rex (Gbs1167) [3]).

B2: ldh_m3 (C9T, A10G) (dsDNA)
DNA 1: TTTGTTTGTGAATTTTTTCACATTTTAT
DNA 2: ATAAAATGTGAAAAAATTCACAAACAAA
B2: binds (Rex (Gbs1167) [4]).

B3: Streptococcus agalactiae (GBS) strain NEM316 redox-sensing transcriptional repressor Rex (Gbs1167) (natural protein, Streptococcus agalactiae strain NEM316)
chain: MIMDKSIPKATAKRLSLYYRIFKRFNTDGIEKASSKQIADALGIDSATVRRDFSYFGELGRRGFGYDVKKLMNFFAEILNDHSTTNVMLVGCGNIGRALLHYRFHDRNKMQISMAFDLDSNDLVGKTTEDGIPVYGISTINDHLIDSDIETAILTVPSTEAQEVADILVKAGIKGILSFSPVHLTLPKDIIVQYVDLTSELQTLLYFMNQQR
notes: also called GBS Rex; native Rex; source: E. coli TUNER (DE3), pET101-Strex, purified (Q-Sepharose, Superdex 75, 5' AMP-Sepharose 4B)
With B3 the “stoichiometry N” value (crystal structure) was 2.

B4: ldh operator 28 bp (dsDNA)
DNA 1: TTTGTTTGCAAATTTTTTCACATTTTAT
DNA 2: ATAAAATGTGAAAAAATTTGCAAACAAA
B4: binds (Rex (Gbs1167) [3]).

B5: ROP 22-mer palindrome (dsDNA)
DNA 1: AATTGTGAAATATTTCACAATT
DNA 2: AATTGTGAAATATTTCACAATT
B5: binds (Rex (Gbs1167) [5]).
